Data taken from patent publication US20040138118A1.

Biological target: myostatin pro peptide (wild type) (human) (UniProt O14793)
Test: cell-based or functional assay

Chain of myostatin pro peptide (wild type) (human) (O14793 24-266): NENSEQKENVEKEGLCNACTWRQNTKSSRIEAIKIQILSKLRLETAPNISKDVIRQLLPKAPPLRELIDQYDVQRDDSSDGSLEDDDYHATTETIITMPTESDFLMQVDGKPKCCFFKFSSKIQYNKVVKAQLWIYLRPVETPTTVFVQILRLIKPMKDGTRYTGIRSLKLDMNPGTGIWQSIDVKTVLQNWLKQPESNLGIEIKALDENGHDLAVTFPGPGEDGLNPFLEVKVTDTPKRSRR

**Q.** With “mammalian Tolloid-like-1 (mTLL-1) (from UniProt O43897 148-1013) (enzyme)” as the substance, how does the fraction of the proteolytically-cleaved myostatin complex active in the reporter assay read?
**A.** > 50%
